This note sets out measurements from US20120172306A1, “Use of HASF as a Protective Agent Against Ischemic Tissue Damage” (Duke University, priority 2009, published 2012).

Holding throughout (type): cell-based
Experiment [1] deals with primary embryonic rat neurons. Description: Caspase 9 assay in H2O2 challenged primary neurons. The note with it: H2O2 (50 μM) 30 min. As for the experimental part:
FIG. 2E is a bar graph showing caspase activity in primary neurons. Embryonic rat neuronal cells were pre-incubated ±100 nM of HASF recombinant protein for 30 min, and then challenged with 200 μM of H2O2 […]. Apoptosis was determined by caspase 9 levels. The results from two independents experiments are shown. ** P<0.01. Data are presented as means±standard deviation of triplicates.
FIG. 4E is a bar graph showing relative caspase activity in primary neurons. Apoptosis as determined by detection of Caspase-9 activity on primary neuron pre-treated with 178 μM PKC translocation inhibitor peptide for 10 minutes and then with 100 nM of HASF for 30 minutes. Thereafter, cells were challenged with 200 μM H2O2 for 3 hours. All samples were measured in replicas N-4 and the experiments was repeated twice. *P<0.05 vs. non-HASF treated cells.
Embryonic rat cortex tissue was purchased from Neuromics (Edina, Minn.). Primary neurons were isolated, cultured on poly-D-lysine coated glass slides according to provided instructions and allowed to grow for 5 days in complete neurobasal media. Cells were treated with PKC-epsilon inhibitor and recombinant protein HASF as described above for cardiomyocytes). For induction of stress the cells were challenged with H202 (50 μM) for 30 min followed by 3 hours of recovery at 37° C. […]

The subject of experiment [2] is PKC, Raf, ERK 1/2, PDK1 phosphorylation in adult rat cardiomyocytes. As to the kind of experiment: Western blot analysis of signaling protein phosphorylation (PKC/ERK pathway). As to the method: FIG. 3A is a photograph of an electrophoretic gel. HASF activates the PKC pathway. A. Western blots analysis for various signaling proteins. Serum-starved adult rat cardiomyocytes were stimulated with 100 nM HASF recombinant protein for various time courses. Cell lysate was collected and the proteins were resolved by SDS-PAGE. Insulin from bovine pancreas was used as a positive control. min: minutes of treatment.
FIG. 3B is a photograph of an immunoblot. Serum-starved adult rat cardiomyocytes were pre-treated with 3 μM PKC inhibitors BIM, Gö6976, or Gö6983 for 30 minutes, then stimulated with 100 nM HASF recombinant protein for 5-10 min and cells were harvested. Total cell lysates were used to analyze the levels of ERK1/2 phosphorylation by western blot analysis.
FIG. 4A is a photograph of an immunoblot. Western blot analysis for PKC E and PKC delta phosphorylation on total cell lysates from serum-starved adult rat cardiomyocytes stimulated with 100 nM HASF recombinant protein at 5 and 30 min. HASF b1 and b2 represent different batches of recombinant protein. PMA was used as positive control.
FIG. 4B is a photograph of an immunoblot. Western blot analysis for ERK1/2 phosphorylation on total cell lysates from adult rat cardiomyocytes pre-treated with 10 pM PKC epsilon translocation inhibitor peptide for 20 min, then 100 nM HASF recombinant protein was added for 5 min or 10 min.
FIGS. 8A-B are photographs of immunoblots. Western blot analysis for PKC a/b and PKC theta phosphorylation on total cell lysates from serum-starved adult rat cardiomyocytes stimulated with 100 nM HASF recombinant protein for the indicated times. HASF batch 1 and 2 represent different batches of recombinant protein. PMA was used as positive control.
Rabbit polyclonal antibodies for phospho-pan PKC, phospho-ERK1/2, phospho-raf, phosphor-PDK1, total Akt were obtained from Cell Signaling Tech. Rabbit polyclonal antibody for phospho-PKC epsilon, phospho-Bad, and GAPDH was obtained from Abeam. HRP-conjugated goat anti-rabbit secondary antibody was obtained from Cell Signaling Tech.
For orientation: A western blot detects proteins with antibodies after separation by electrophoresis.

A further experiment concerns adult rat cardiomyocytes. As to the kind of experiment: DNA fragmentation and apoptosis-related protein western blotting. As for the experimental part:
FIGS. 7A-C are a series of photographs showing the effects of HASF in cytochrome c, Bcl2, Bax and DNA degradation. In FIG. 7A, Adult rat cardiomyocytes were treated with +10 nM of HASF for 30 min, and then challenged with 100 μM of H2O2 for 6 h. Mitochondrial fraction or cytosolic fraction or total cell lysate were extracted and separated in 15% SDS-PAGE and transferred to nitrocellulose membrane and probed with mouse anti-Cytochrome C monoclonal antibody. Lane 1-2, —H2O2 control; lane 3-4, +H2O2 control; lane 5-8, four individual samples of +HASF recombinant protein and then +H2O2. In FIG. 7B, Western blot of mitochondrial fractions with Bcl2 and Bax antibodies respectively. Lane 1, —H2O2control; lane 2, +H2O2control; lane 3-6, four individual samples of +HASF and then +H2O2. In FIG. 7C, adult rat cardiomyocytes were treated +10 nM of HASF for 30 min, and then challenged with 100 μM of H2O2 for overnight (˜15 h). Genomic DNA was extracted and separated on 1% agarose gel. H2O2 induced apoptosis in cardiomyocytes was companied by typical DNA fragmentation (laddering) at late-stage apoptosis. Pre-incubation of cardiomyocytes with 10 nM of this HASF recombinant protein inhibited the DNA laddering to a noticeable extends. Lane 1, DNA marker; lane 2, —H2O2control; lane 3-4, +H2O2; lane 5-6, +HASF recombinant protein and then +H2O2.
Adult rat ventricular cardiomyocytes were isolated from 6 weeks old female Sprague-Dawley rat (Harlan World Headquarters, Indianapolis, Ill., USA) hearts by enzymatic digestion and were seeded in (6-well) plates or Delta T culture dishes (Bioptechs, Inc., Pa.) pre-coated with 1 μg/cm2 of laminin (Sigma) at 5×10^4/well and cultured overnight in serum-free M199 medium (Sigma), supplemented with 2 mM of L-carnitine, 5 mM of creatine, 5 mM of taurine, 0.2% of albumin, 100 U/ml of penicillin and 100 μg/ml of streptomycin. Cells were briefly treated without or with PKC inhibitor (with vehicle saponin), then recombinant protein HASF (10 or 100 nM) was added into cells for 30 min, with PBS used as vehicle controls. The cells were challenged with H2O2 for various time points. For the Caspase assays, cardiomyocytes were scraped off plates in lysis buffer and were analyzed by a luminescent plate reader with Caspase-Glo 3/7 and or Caspase-Glo 9 kits (Promega); and for DNA fragmentation, genomic DNA from cardiomyocytes was extracted and separated on 1% agarose gel electrophoreses, with Apoptotic DNA Ladder Extraction Kit (BioVision), according to manufacturers' instructions. […]

Where [3] appears, read: 100 nM, within 5-10 minutes of treatment.

B1: HASF: Hypoxia regulated Akt MSC Factor, secreted protein encoded by C3orf58; recombinant human protein without N-signal sequence, SEQ ID NO:1 or 2 (protein, UniProt Q8NDZ4 36-430, looked up)
Divergent protein kinase …: LASWQRNELTDRRFLQLNKCPACFGTSWCRRFLNGQVVFEAWGRLRLLDFLNVKNVYFAQYGEPREGGRRRVVLKRLGSQRELAQLDQSICKRATGRPRCDLLQAMPRTEFARLNGDVRLLTPEAVEGWSDLVHCPSQRLLDRLVRRYAETKDSGSFLLRNLKDSERMQLLLTLAFNPEPLVLQSFPSDEGWPFAKYLGACGRMVAVNYVGEELWSYFNAPWEKRVDLAWQLMEIAEQLTNNDFEFALYLLDVSFDNFAVGPRDGKVIIVDAENVLVADKRLIRQNKPENWDVWYESKFDDCDKEACLSFSKEILCARATVDHNYYAVCQNLLSRHATWRGTSGGLLHDPPSEIAKDGRLEALLDECANPKKRYGRFQAAKELREYLAQLSNNVR
modifications: 6xHis tag
Take B1: the “attenuation of Caspase 9 levels” value in experiment [1] (30 min pretreatment, P<0.05) was 20-40%. Besides, the “Caspase 9 levels in challenged neuronal cells” value in experiment [1] (HASF 30 min) is on record as “significantly reduced”. Further, in experiment [2] (100 nM HASF), the “activity (phosphorylation) of the other PKC isoforms tested (PKC α/β, σ, σ/λ, θ)” value was “did not affect”. Besides, the “phosphorylation of PKCe” value in experiment [2] (100 nM HASF, 5 and 30 min) is on record as “increased the phosphorylation of PKCe selectively”. The “phosphorylation of PDK1” value in experiment [2] (100 nM, 0-60 minutes) is given as “not increased”. Moreover, in experiment [2] (setting [3]), the “phosphorylation of ERK 1/2” value is “increased dramatically”, the “phosphorylation of PKC” value is recorded as “increased dramatically” and the “phosphorylation of Raf” value was “increased dramatically”. Also, in the experiment with adult rat cardiomyocytes (10 nM for 30 min, 100 μM H2O2), the “mitochondrial anti-apoptotic Bcl-2 protein level” value is “increased levels”. Besides, the “cytochrome C release into the cytosol” value in the experiment on adult rat cardiomyocytes (10 nM for 30 min, 100 μM H2O2 6 h) was “prevention of cytochrome C release into the cytosol”. The DNA fragmentation result in the experiment on adult rat cardiomyocytes (10 nM for 30 min, 100 μM H2O2 overnight (~15 h)) was “reduction of DNA fragmentation”. Besides, the “translocation of Bax protein from cytosol into mitochondria” value in the experiment with adult rat cardiomyocytes (H2O2 induced apoptosis) was “did not prevent”.
